Patent US20050148763A1, “Peg-binding pth or peg-binding pth derivative” (Chugai Seiyaku Kabushiki Kaisha, priority 2002, published 2005)

What was measured:
Type in all cases: in vivo
[1] = Pharmacokinetics and bioavailability in rats by subcutaneous route; conditions: for BA: subcutaneous route; for AUC / MRT / Tmax / t ½: subcutaneous, 80 μg/mL at 1 mL/kg
Method: (§1) Each sample was adjusted to 80 μg/mL by dilution with 25 mmol/L citrate-phosphate buffer (pH 5.0) containing 100 mmol/L NaCl and 0.05 vol % Tween 20 to give a solution for administration. Male SD rats at 6 weeks of age (CLEA Japan, Inc.) were provided for this experiment. Intravenous injection was performed on rats having polyethylene tubes (SP-31, Natsume Seisakusho Co., Ltd.) inserted into the femoral artery and vein. The solutions thus prepared were each administered at a dose of 1 mL/kg through a polyethylene tube inserted into the femoral vein, and blood was collected through a polyethylene tube inserted into the femoral artery before administration and at 5, 15, 30 and 45 minutes as well as 1, 2, 4, 6, 8 and 24 hours after administration. Subcutaneous administration was performed on rats having polyethylene tubes inserted into the femoral artery. The solutions prepared above were each subcutaneously administered at a dose of 1 mL/kg to the dorsal neck region of the rats, and blood was collected in the same manner as used for intravenous injection. These blood samples were centrifuged to collect plasma and stored at −40° C. until assayed for PTH(1-34) or PEG-PTH(1-34) levels.
(§2) The level of PTH(1-34) or PEG-PTH(1-34) was determined by RIA analysis using a Rat PTH IRMA Kit (Immutopics). A Cobra Quantum Model 5005 gamma counter (Packard) was used to measure radioactivity for each sample. The plasma level of PTH(1-34) or PEG-PTH(1-34) was calculated from a calibration curve prepared using PTH(1-34) or PEG-PTH(1-34). The Winnonlin program Ver. 2.1 (Scientific Consulting Inc.) was used to analyze the time course of changes in the calculated plasma PTH(1-34) or PEG-PTH(1-34) levels (FIG. 3: by intravenous route; FIG. 4: by subcutaneous route) to calculate the following as pharmacokinetic parameters: time required to reach the maximum plasma level (Tmax); maximum plasma level (Cmax); area under the curve of plasma levels (AUC); plasma half-life (t1/2); total body clearance (Cltotal); mean residence time in the body (MRT); and bioavailability (BA). […]

[2] = Pharmacokinetics in rats by intravenous route; conditions: 80 μg/mL at 1 mL/kg
Method: as §1, §2

[3] = Hypercalcemic effect of PEG-PTH(1-34) in normal male BDF1 mice; conditions: for time of maximum increase in blood ionized calcium levels after administration: sc, hPTH(1-34) 50-500 nmol/kg, PEG-PTHs 150 nmol/kg
Method: (§3) 2 k and 5 k PEG-PTH(1-34) were also adjusted similarly to 30 nmol/mL (calculated as PTH) and allowed to stand on ice immediately before administration.
(§4) Male BDF1 mice at 5 weeks of age (Charles River Japan, Inc.) were measured for their body weight. Immediately before drug administration, blood was collected by orbital puncture into heparinized capillary tubes and measured for baseline levels of blood ionized calcium and pH using a Ca^2+/pH analyzer (Model 348/Bayer Medical Ltd.) to give the corrected level of ionized calcium at pH 7.4 for each sample. The mice received subcutaneous administration of each drug at a dose of 5 mL/kg. […] At 1, 3 and 6 hours after administration, blood was collected by orbital puncture to monitor the time course of corrected blood ionized calcium levels.

[4] = Hypotensive effect in anesthetized rats; conditions: sc
Method: The mono-methoxy 5 k PEG-PTH(1-34) prepared in Example 1(2) was also adjusted similarly to 36.5, 18.3 and 9.1 μg/mL (calculated as PTH(1-34)). The samples thus prepared were then stored on ice and restored to room temperature about 30 minutes before administration.
Female SD rats at 10 weeks of age (Charles River Japan, Inc.) were anesthetized by intraperitoneal administration of 50 mg/kg pentobarbital sodium (Abbott Laboratories). A catheter for blood pressure measurement and a catheter for anesthesia maintenance were inserted into the femoral artery and vein, respectively, of each rat. Anesthesia was maintained using a syringe pump (Terumo Corporation) to ensure continuous injection (at 22.5 mg/kg/hour) of pentobarbital sodium (powder form, Tokyo Kasei Kogyo Co., Ltd.) dissolved in physiological saline (Otsuka Pharmaceutical Co., Ltd.). On the other hand, each catheter for blood pressure measurement was filled with 100 U/mL heparin sodium (Novo Nordisk A/S) in physiological saline. To measure systemic blood pressure, a pressure transducer (Nihon Kohden Corporation) was connected to the catheter for blood pressure measurement and signals from the transducer were input to a blood pressure amplifier (Nihon Kohden Corporation). The resulting data were averaged for use as an indicator of systemic blood pressure. The output of systemic blood pressure was, in turn, input to a measuring unit for instantaneous heart rate (Nihon Kohden Corporation) to determine heart rate. These parameters were continuously recorded on a thermal pen recorder (Graphtec Corporation) at a speed of 5 mm/min. After surgery, an injection needle for administration of a test substance was inserted into the dorsal subcutaneous region of each rat. After each parameter had stabilized, test drugs were administered. […] This figure illustrates changes in blood pressure induced by administration of a negative control (buffer), 50 μg/kg hPTH (1-34) and 36.5 μg/kg 5 k PEG-PTH(1-34) in this order from the upper panel. In addition, the average value of blood pressure before PTH administration and the value at the maximum blood pressure drop after administration were measured for each case to determine the difference between these two values. […] The vertical axis represents the maximum blood pressure drop (mmHg) and the horizontal axis represents the amount of PTH administered.

[5] = Hypercalcemic effect of PEG-PTH(1-34) in normal female DDY mice
Method: as §3, §4
The same experiment was repeated on female DDY mice at 5 weeks of age (Charles River Japan, Inc.). The mice received subcutaneous administration of each drug at a dose of 5 mL/kg. […] At 1, 3 and 6 hours after administration, blood was collected by orbital puncture to monitor the time course of corrected blood ionized calcium levels.

Substance	BA ([1]; listed as 2 k PEG-PTH (1-34)) [%]	BA ([1]; listed as 2 k PEG-PTH(1-34))	AUC [1] [ng·h/mL]	MRT [1] [h]	Tmax [1] [h]	t ½ [1] [h]	AUC [2] [ng·h/mL]	Cltotal [2] [mL/min/kg]	MRT [2] [h]	t ½ [2] [h]	increase in blood ionized calcium levels (in words) ([3]; 150 nmol/kg sc)	increased blood ionized calcium level maintained until ([3]; 150 nmol/kg sc) [h]	time of maximum increase in blood ionized calcium levels after administration [3]	BA [1] [%]	hypotensive effect after administration (in words) ([4]; anesthetized female SD rats)	hypotensive effect over doses, maximum blood pressure drop (in words) ([4]; anesthetized rats, hPTH(1-34) 12.5-50 μg/kg, 5 k PEG-PTH(1-34) 9.1-36.5 μg/kg)	increase in blood ionized calcium levels (in words) ([5]; 150 nmol/kg sc)	time of maximum increase in blood ionized calcium levels after administration ([5]; sc, hPTH(1-34) 50-500 nmol/kg, 5 k PEG-PTH(1-34) 150 nmol/kg) [h]
2k PEG-hPTH(1-34): hPTH(1-34) reacted with mPEG 2 k-SPA, fraction having one 2 kDa PEG molecule per PTH molecule	56.1	about 56.1%	53.78	1.684	0.300	1.231	95.781	14.03	0.465	1.128	almost the same increase in ionized calcium levels as observed with 500 nmol/kg hPTH(1-34)	3	one					
5k PEG-hPTH(1-34): hPTH(1-34) reacted with mPEG 5 k-SPA, fraction having one 5 kDa PEG molecule per PTH molecule			126.793	5.706	0.813	6.758	178.547	7.49	2.578	5.706	gradual increase in blood ionized calcium levels to reach the same maximum value as observed with hPTH(1-34)		3 h	~71.0	mild hypotensive effect after administration	much weaker effect than hPTH(1-34) when administered at a higher dose	gradual increase in blood ionized calcium levels to reach the same maximum value as observed with 500 nmol/kg hPTH(1-34)	3
